Where two headings read alike, the source gives them in different places.
How the values were obtained:
[1] = test system: vascularization of Matrigel plugs; experiment: Murine Matrigel plug angiogenesis assay; type: in vivo, mouse; conditions: for vascularization of Matrigel plugs / in vivo angiogenesis: plugs with bFGF and VEGF, s.c., mice; for infiltration / invasion of cells into Matrigel plugs: plugs with growth factors
Method: (§1) Cord formation assay of HUVEC in Matrigel™ (upper row). Cells in exponential growth phase were treated overnight with the indicated concentrations of EphB4 extracellular domain (ECD) prior to plating on Matrigel™. Cells were trypsinized and plated (1×10^5 cells/well) in a 24-well plate containing 0.5 ml Matrigel™. Shown are representative 20× phase contrast fields of cord formation after 8 hr plating on Matrigel™ in the continued presence of the test compounds as shown. Original magnification 200×. KS-SLK cells treated in a similar manner (middle row) in a cord formation assay on Matrigel™. […] After 7 days the plugs were removed, sectioned and stained with H&E to visualize cells migrating into the matrix.
Matrigel supplemented with bFGF and VEGF with and without soluble EphB4 was injected s.c. into Balb/C nu/nu mice, forming semi-solid plugs, for six days. Plugs without growth factors had virtually no vascularization or vessel structures after 6 days (FIG. 21). In contrast, plugs supplemented with bFGF and VEGF had extensive vascularization and vessels throughout the plug.
In vivo angiogenesis was assayed in mice as growth of blood vessels from subcutaneous tissue into a Matrigel plug containing the test sample. Matrigel rapidly forms a solid gel at body temperature, trapping the factors to allow slow release and prolonged exposure to surrounding tissues. Matrigel (8.13 mg/ml, 0.5 ml) in liquid form at 4° C. was mixed with Endothelial Cell Growth Supplement (ECGS), test proteins plus ECGS or Matrigel plus vehicle alone (PBS containing 0.25% BSA). Matrigel (0.5 ml) was injected into the abdominal subcutaneous tissue of female nu/nu mice (6 wks old) along the peritoneal mid line. There were 3 mice in each group. The animals were cared for in accordance with institutional and NIH guidelines. At day 6, mice were sacrificed and plugs were recovered and processed for histology. Typically the overlying skin was removed, and gels were cut out by retaining the peritoneal lining for support, fixed in 10% buffered formalin in PBS and embedded in paraffin. Sections of 3 μm were cut and stained with H&E or Masson's trichrome stain and examined under light microscope

[2] = test system: bFGF-induced corneal neovascularization; experiment: Mouse corneal micropocket assay; type: in vivo; conditions: mouse cornea, day 7 of implantation
From the text: To further investigate the antiangiogenic activity of soluble EphB4 in vivo, we studied the inhibitory effect of administration of soluble EphB4 on neovascularization in the mouse cornea induced by bFGF. Hydron Pellets implanted into corneal micropocket could induce angiogenesis, in the presence of growth factors, in a typically avascular area. The angiogenesis response in mice cornea was moderate, the appearance of vascular buds was delayed and the new capillaries were sparse and grew slowly.
Mouse corneal micropocket assay was performed according to that detailed by Kenyon et al., 1996. Briefly, hydron pellets (polyhydroxyethylmethacrylate [polyHEMA], Interferon Sciences, New Brunswick, N.J., U.S.A.) containing either 90 ng of bFGF (R&D) or 180 ng of VEGF (R&D Systems, Minneapolis, Minn., U.S.A.) and 40 μg of sucrose aluminium sulfate (Sigma) were prepared. Using an operating microscope, a stromal linear keratotomy was made with a surgical blade (Bard-Parker no. 15) parallel to the insertion of the lateral rectus muscle in an anesthetized animal. An intrastromal micropocket was dissected using a modified von Graefe knife (2^••30 mm). […] The difference in pellet location for each growth factor was determined to be necessary given the relatively weaker angiogenic stimulation of VEGF in this model. […]

B16 (melanoma) = experiment: B16 melanoma tumor in mice, soluble EphB4; type: in vivo, mouse
Method: Tumors were injected premixed with Matrigel plus growth factors and soluble EphB4 subcutaneously. After 10 to 14 days, the mice were injected intravenously with FITC-lectin (green) to assess blood vessel perfusion.
30 athymic nude mice, BALB/c (nu/nu), were each injected with 1×10^6 B16 melanoma cells with 0.1 ml PBS mixed with 0.1 ml matrigel or 1.5×10^6 SCC15 cells resuspended in 200 μl of DMEM serum-free medium and injected subcutaneously on day 0 on the right shoulder region of mice. Proteins were injected intravenously or subcutaneously, around the tumor beginning on day 1 at a loading dose of 4 μg/mg, with weekly injections of 2 ug/mg. (10 μg/g, 50 μg/kg/day), and at 2 weeks post-inoculation. Mice are sacrificed on Day 14. Control mice received PBS 50 μl each day.

HNSCC-15 cells = experiment: Cell cycle FACS of HNSCC cells with soluble EphB4ECD; type: cell-based, human
HUVECS = experiment: MTS cytotoxicity assay; type: cell-based, human
EphB4 receptor = EphB4 receptor phosphorylation in HUVECs (Western blot); type: cell-based, human; conditions: serum-starved HUVECs, in the presence of EphrinB2Fc
From the text: We examined EphB4 receptor phosphorylation in HUVECs by performing Western blot analyses with lysates from soluble EphB4-treated cells and antibodies against phosphor-tyrosine. […] Ephrin B2Fc without the soluble EphB4 protein induced phosphorylation of EphB4 receptor (FIG. 22).

HUVEC = experiment: Endothelial cell tube (cord) formation on Matrigel; type: cell-based, human
Method: as §1
Matrigel (60 μl of 10 mg/ml; Collaborative Lab #35423) is placed in each well of an ice-cold 96-well plate. The plate is allowed to sit at room temperature for 15 minutes then incubated at 37° C. for 30 minutes to permit the matrigel to polymerize. In the mean time, HUVECs are prepared in EGM-2 (Clonetic #CC3162) at a concentration of 2×10^5 cells/ml. The test compound is prepared at 2× the desired concentration (5 concentration levels) in the same medium. Cells (500 μl) and 2× drug (500 μl) is mixed and 200 μl of this suspension are placed in duplicate on the polymerized matrigel. After 24 h incubation, triplicate pictures are taken for each concentration using a Bioquant Image Analysis system. Drug effect (IC50) is assessed compared to untreated controls by measuring the length of cords formed and number of junctions.
Matrigel (60 μl of 10 mg/ml; Collaborative Lab, Cat. No. 35423) was placed in each well of an ice-cold 96-well plate. The plate was allowed to sit at room temperature for 15 minutes then incubated at 37° C. for 30 minutes to permit Matrigel to polymerize. In the mean time, human umbilical vein endothelial cells were prepared in EGM-2 (Clonetic, Cat. No. CC3162) at a concentration of 2×10^5 cells/ml. The test protein was prepared at 2× the desired concentration (5 concentration levels) in the same medium. Cells (500 μl) and 2× protein (500 μl) were mixed and 200 μl of this suspension were placed in duplicate on the polymerized Matrigel. After 24 h incubation, triplicate pictures were taken for each concentration using a Bioquant Image Analysis system. Protein addition effect (IC50) was assessed compared to untreated controls by measuring the length of cords formed and number of junctions.

B1: soluble EphB4: soluble EphB4 extracellular domain protein; exact construct not stated at the results (protein)
chain: LEETLLNTKLETADLKWVTFPQVDGQWEELSGLDEEQHSVRTYEVCDVQRAPGQAHWLRTGWVPRRGAVHVYATLRFTMLECLSLPRAGRSCKETFTVFYYESDADTATALTPAWMENPYIKVDTVAAEHLTRKRPGAEATGKVNVKTLRLGPLSKAGFYLAFQDQGACMALLSLHLFYKKCAQLTVNLTRFPETVPRELVVPVAGSCVVDAVPAPGPSPSLYCREDGQWAEQPVTGCSCAPGFEAAEGNTKCRACAQGTFKPLSGEGSCQPCPANSHSNTIGSAVCQCRVGYFRARTDPRGAPCTTPPSAPRSVVSRLNGSSLHLEWSAPLESGGREDLTYALRCRECRPGGSCAPCGGDLTFDPGPRDLVEPWVVVRGLRPDFTYTFEVTALNGVSSLATGPVPFEPVNVTTDREVPPAVSDIRVTRSSPSSLSLAWAVPRAPSGAVLDYEVKYHEKGAEGPSSVRFLKTSENRAELRGLKRGASYLVQVRARSEAGYGPFGQEHHSQTQLDESEGWREQLA
[1]
  vascularization of Matrigel plugs / in vivo angiogenesis: markedly reduced
  infiltration / invasion of cells into Matrigel plugs: significantly inhibited
[1]; listed as EphB4-ECD
  vascularization of Matrigel plugs / in vivo angiogenesis: inhibits
[1]; listed as EphB4 ECD
  infiltration / invasion of cells into Matrigel plugs: almost completely inhibited
[2]
  corneal neovascularization induced by bFGF: markedly inhibited
B16 (melanoma); B16, premixed with Matrigel plus growth factors, 10 to 14 days
  tumor angiogenesis: marked inhibition
HNSCC-15 cells
  cell cycle distribution: accumulation in subG0/G1 and S/G2 phases
HUVECS
  cytotoxic effect: no detectable cytotoxic effect
EphB4 receptor
  level of phosphorylated EphB4: rapid and transient decrease
HUVEC
  endothelial cell tube / tubule / cord formation: significantly inhibited
HUVEC; listed as EphB4-ECD
  endothelial cell tube / tubule / cord formation: inhibits

B2: B4ECv3: soluble extracellular domain derivative of human EphB4, SEQ ID NO:1 (protein)
chain: MELRVLLCWASLAAALEETLLNTKLETADLKWVTFPQVDGQWEELSGLDEEQHSVRTYEVCEVQRAPGQAHWLRTGWVPRRGAVHVYATLRFTMLECLSLPRAGRSCKETFTVFYYESDADTATALTPAWMENPYIKVDTVAAEHLTRKRPGAEATGKVNVKTLRLGPLSKAGFYLAFQDQGACMALLSLHLFYKKCAQLTVNLTRFPETVPRELVVPVAGSCVVDAVPAPGPSPSLYCREDGQWAEQPVTGCSCAPGFEAAEGNTKCRACAQGTFKPLSGEGSCQPCPANSHSNTIGSAVCQCRVGYFRARTDPRGAPCTTPPSAPRSVVSRLNGSSLHLEWSAPLESGGREDLTYALRCRECRPGGSCAPCGGDLTFDPGPRDLVEPWVVVRGLRPDFTYTFEVTALNGVSSLATGPVPFEPVNVTTDREVPPAVSDIRVTRSSPSSLSLAWAVPRAPSGAWLDYEVKYHEKGAEGPSSVRFLKTSENRAELRGLKRGASYLVQVRARSEAGYGPFGQEHHSQTQLDESEGWREQGSKRAILQIEGKPIPNPLLGLDSTRTGHHHHHH
modifications: Recombinant B4ECv3 protein
[1]
  infiltration / invasion of cells into Matrigel plugs: inhibits invasion
[2]
  corneal neovascularization induced by bFGF: inhibits
B16 (melanoma); B16 co-injected with matrigel and growth factors
  in vivo tumor growth: inhibits
HUVEC
  endothelial cell tube / tubule / cord formation: inhibition
HUVEC; listed as B4v3
  endothelial cell tube / tubule / cord formation: strong inhibition
